For three substances, diffusion constant of Cy5-PCNA on DNA with 1 μM ΔN-PAF15, diffusion constant of Cy5-PCNA on DNA with 20 μM PAF15 50-77 and diffusion constant of Cy5-PCNA on DNA with 1 μM Di-UbPAF15 results are on record in article doi:10.1101/2025.11.15.688598.

This assay concerns the target Cy5-labeled proliferating cell nuclear antigen (PCNA) (human) (UniProt P12004).

Chain of Cy5-labeled proliferating cell nuclear antigen (PCNA) (human) (P12004 whole entry): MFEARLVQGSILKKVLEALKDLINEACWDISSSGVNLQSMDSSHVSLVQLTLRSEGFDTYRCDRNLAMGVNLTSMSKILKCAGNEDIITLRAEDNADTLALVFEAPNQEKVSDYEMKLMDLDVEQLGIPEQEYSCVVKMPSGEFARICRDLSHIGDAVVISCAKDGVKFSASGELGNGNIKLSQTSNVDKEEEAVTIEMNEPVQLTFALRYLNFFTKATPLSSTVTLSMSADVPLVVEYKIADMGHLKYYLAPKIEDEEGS
Chain of Doubly monoubiquitinated PAF15 (Di-UbPAF15) (Q15004 whole entry, looked up): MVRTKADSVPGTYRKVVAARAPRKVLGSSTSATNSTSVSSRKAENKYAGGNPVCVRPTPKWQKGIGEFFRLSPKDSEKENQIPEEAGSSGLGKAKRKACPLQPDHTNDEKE
Chain of ΔN-PAF15 (truncated PAF15 variant lacking residues 2-31) (Q15004 32-111, stated change not applied): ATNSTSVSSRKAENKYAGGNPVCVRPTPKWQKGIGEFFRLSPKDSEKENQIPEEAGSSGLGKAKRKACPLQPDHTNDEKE
Chain of PAF15^50–77 peptide (Q15004 50-77): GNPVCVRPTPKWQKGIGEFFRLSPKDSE

“ΔN-PAF15 (truncated PAF15 variant lacking residues 2-31) (from UniProt Q15004 32-111) (domain or fragment)” showed a diffusion constant of Cy5-PCNA on DNA with 1 μM ΔN-PAF15 of 0.15 μm2/s. Turning to PAF15^50–77 peptide, the diffusion constant of Cy5-PCNA on DNA with 20 μM PAF15 50-77 was 0.22 μm2/s. Substance “Doubly monoubiquitinated PAF15 (Di-UbPAF15) (from UniProt Q15004 2-111) (complex)” displayed a diffusion constant of Cy5-PCNA on DNA with 1 μM Di-UbPAF15 of 0.2 μm2/s.
